The values that follow come from article PMC12528898 (The Journal of Biological Chemistry, 2025).

As usually defined, the Kd is the concentration at which binding is half-saturated.

T1: mNeon PPM1H (full-length PPM1H with mNeon inserted into loop 1 at position 125) (human, UniProt Q9ULR3 1-514)
T1 construct: PPM1H phosphatase, human, full length; mNeon inserted into loop 1 (residues 115-133) at position 125; the plasmid is pET15b His SUMO mNeon PPM1H; His-SUMO removed by Ulp1 before gel filtration; also called WT PPM1H; HisSUMO-mNeon PPM1H; not shown: mNeon, internal (loop 1, at position 125), kept
T1 sequence (looked up): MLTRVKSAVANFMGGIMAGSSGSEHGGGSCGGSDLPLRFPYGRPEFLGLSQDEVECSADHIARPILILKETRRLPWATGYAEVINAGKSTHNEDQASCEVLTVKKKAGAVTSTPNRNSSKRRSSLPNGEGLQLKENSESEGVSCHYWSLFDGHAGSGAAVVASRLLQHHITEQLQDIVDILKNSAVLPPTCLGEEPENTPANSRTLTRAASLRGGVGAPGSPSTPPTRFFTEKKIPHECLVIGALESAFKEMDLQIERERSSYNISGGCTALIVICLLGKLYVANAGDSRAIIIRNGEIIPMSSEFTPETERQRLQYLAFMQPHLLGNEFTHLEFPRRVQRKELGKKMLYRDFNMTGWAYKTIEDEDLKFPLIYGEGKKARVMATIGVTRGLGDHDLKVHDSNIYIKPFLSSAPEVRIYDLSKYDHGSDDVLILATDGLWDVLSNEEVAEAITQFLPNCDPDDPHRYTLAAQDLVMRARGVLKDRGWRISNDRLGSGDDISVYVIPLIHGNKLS

B1: Rab12 Q101L (full length, nonprenylated, nonphosphorylated) (natural protein, human, UniProt Q6IQ22-2 1-244, looked up)
chain: MDPGAALQRRAGGGGGLGAGSPALSGGQGRRRKQPPRPADFKLQVIIIGSRGVGKTSLMERFTDDTFCEACKSTVGVDFKIKTVELRGKKIRLQIWDTAGLERFNSITSAYYRSAKGIILVYDITKKETFDDLPKWMKMIDKYASEDAELLLVGNKLDCETDREITRQQGEKFAQQITGMRFCEASAKDNFNVDEIFLKLVDDILKKMPLDILRNELSNSILSLQPEPEIPPELPPPRPHVRCC
notes: also called His SUMO Rab12 (full length) Q101L; source: E. coli, purified (TALON, Ulp1 cleavage, Superdex 200), 20 μM GTP in all buffers
B2: Rab10 Q68L (full length, nonprenylated, nonphosphorylated) (natural protein, human, UniProt P61026 1-200, looked up)
chain: MAKKTYDLLFKLLLIGDSGVGKTCVLFRFSDDAFNTTFISTIGIDFKIKTVELQGKKIKLQIWDTAGLERFHTITTSYYRGAMGIMLVYDITNGKSFENISKWLRNIDEHANEDVERMLLGNKCDMDDKRVVPKGKGEQIAREHGIRFFETSAKANINIEKAFLTLAEDILRKTPVKEPNSENVDISSGGGVTGWKSKCC
notes: also called His SUMO Rab10 (full length) Q68L; untagged Rab10 Q68L; source: E. coli, purified (TALON, Ulp1 cleavage, Superdex 200), 20 μM GTP in all buffers
B3: His Rab8A Q67L (full length, nonprenylated, nonphosphorylated) (natural protein, human, UniProt P61006 1-207, looked up)
chain: MAKTYDYLFKLLLIGDSGVGKTCVLFRFSEDAFNSTFISTIGIDFKIRTIELDGKRIKLQIWDTAGLERFRTITTAYYRGAMGIMLVYDITNEKSFDNIRNWIRNIEEHASADVEKMILGNKCDVNDKRQVSKERGEKLALDYGIKFMETSAKANINVENAFFTLARDIKAKMDKKLEGNSPQGSNQGVKITPDQQKRSSFFRCVLL
notes: subcloned from HA-Rab8A (DU35414) into pET14b; also called Rab8A-6XHis; unphosphorylated Rab8A; source: E. coli, purified (TALON, Superdex 75), 20 μM GTP in all buffers
B4: Thiophosphorylated His Rab8A Q67L (natural protein, human, UniProt P61006 1-207, looked up)
chain: B3 chain
modifications: thiophosphorylated with ATPγS by MST3 kinase (fully modified by PhosTag gel); the residue is not given
notes: Rab8A GTPase, full length, Q67L, thiophosphorylated form of m5; also called Thio-pRab8A (Q67L); thiophosphorylated Rab8A; source: E. coli, purified (TALON, Superdex 75); thiophosphorylated in vitro overnight at 4 °C by His-MST3 kinase with ATPγS

The test concerns the target T1, mNeon PPM1H (full-length PPM1H with …). The test is described as follows: MST; unlabelled Rab protein (16 serial dilutions) titrated against 100 nM fluorescent mNeon PPM1H variant; 30 min in the dark; Monolith NT.115; three independent measurements with different protein preparations. The conditions noted are these: both partners purified.
Take B1: the Kd is 7400 nM. In the case of B2, the equilibrium dissociation constant (Kd) worked out at 1300 nM.

B3 registered a dissociation constant (Kd) of 1400 nM.

In turn, B4 came in with a Kd of 1000 nM. This Kd and that of the molecule before are within 1.5-fold of each other.
